Results taken from patent US20260055143A1, “HIGH AFFINITY VARIANTS OF SH2 DOMAINS” (Axoiya Inc., priority 2023, published 2026).

Molecular target: SLTI{pTyr}AQVQKA (Homo sapiens, UniProt Q13291)
Test: Competitive ELISA, SH2D1B variants
Format: binding

B1: SH2D1B: SH2D1B SH2 domain, SEQ ID 67 (protein, listed as Homo sapiens)
chain: YYHGRLTKQDCETLLLKEGVDGNFLLRDSESIPGVLCLCVSFKNIVYTYRIFREKHGYYRIQTAEGSPKQVFPSLKELISKFEKPNQGMVVHLLKPI
- change in affinity (superbinding grafts or the αA-2-Arg substitution): could not be improved further
- change in affinity (with either the sSrc or sFes graft): no improvement in affinity
